One data set deals with T1, PriA (D. radiodurans) (Deinococcus radiodurans R1, UniProt P0DXX8 1-925).
T1 sequence: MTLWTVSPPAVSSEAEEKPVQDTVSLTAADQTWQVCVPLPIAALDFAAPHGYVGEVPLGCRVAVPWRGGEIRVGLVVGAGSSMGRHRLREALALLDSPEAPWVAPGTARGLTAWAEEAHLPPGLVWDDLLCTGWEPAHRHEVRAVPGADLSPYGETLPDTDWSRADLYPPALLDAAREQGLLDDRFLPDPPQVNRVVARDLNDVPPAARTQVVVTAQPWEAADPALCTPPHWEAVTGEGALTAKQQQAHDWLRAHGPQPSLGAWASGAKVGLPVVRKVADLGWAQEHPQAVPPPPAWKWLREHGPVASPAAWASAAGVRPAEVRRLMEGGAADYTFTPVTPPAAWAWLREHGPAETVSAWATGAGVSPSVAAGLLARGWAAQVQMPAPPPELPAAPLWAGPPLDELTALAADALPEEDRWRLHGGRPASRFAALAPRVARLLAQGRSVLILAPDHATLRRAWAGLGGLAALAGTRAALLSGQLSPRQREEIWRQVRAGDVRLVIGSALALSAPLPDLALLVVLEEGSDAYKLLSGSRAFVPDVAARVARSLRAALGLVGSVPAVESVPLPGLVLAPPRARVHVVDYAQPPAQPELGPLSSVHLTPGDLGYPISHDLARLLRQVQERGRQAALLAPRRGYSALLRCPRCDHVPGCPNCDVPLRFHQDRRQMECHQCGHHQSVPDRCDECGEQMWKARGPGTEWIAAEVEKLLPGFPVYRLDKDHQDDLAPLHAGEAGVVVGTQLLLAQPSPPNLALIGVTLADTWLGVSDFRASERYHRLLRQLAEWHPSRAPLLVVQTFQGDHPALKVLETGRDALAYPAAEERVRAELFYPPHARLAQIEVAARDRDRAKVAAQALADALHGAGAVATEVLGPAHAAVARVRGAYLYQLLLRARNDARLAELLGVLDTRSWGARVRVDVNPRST
As to the kind of experiment: fluorescence anisotropy; 1 mM Mg2+, no ATP listed; apparent Kd (half-bound); 20 mM Tris-HCl pH 8, 15% glycerol, 50 mM NaCl, 1 mM MgCl2, 1 mM 2-mercaptoethanol, 0.1 g/L BSA, 1 nM DNA, 25 C. The note with it: protein: recombinant, tags: N-terminal His6 removed by thrombin, leaving Gly-Ser-His before Met1. In general terms: Fluorescence polarisation rises when a labelled molecule tumbles more slowly, as on binding a larger partner.

In a further data set the target is PriA (E. coli) (Escherichia coli K12, UniProt P17888 1-732). The data set is described as above. Conditions: protein: recombinant.
Chain of PriA (E. coli) (P17888 whole entry): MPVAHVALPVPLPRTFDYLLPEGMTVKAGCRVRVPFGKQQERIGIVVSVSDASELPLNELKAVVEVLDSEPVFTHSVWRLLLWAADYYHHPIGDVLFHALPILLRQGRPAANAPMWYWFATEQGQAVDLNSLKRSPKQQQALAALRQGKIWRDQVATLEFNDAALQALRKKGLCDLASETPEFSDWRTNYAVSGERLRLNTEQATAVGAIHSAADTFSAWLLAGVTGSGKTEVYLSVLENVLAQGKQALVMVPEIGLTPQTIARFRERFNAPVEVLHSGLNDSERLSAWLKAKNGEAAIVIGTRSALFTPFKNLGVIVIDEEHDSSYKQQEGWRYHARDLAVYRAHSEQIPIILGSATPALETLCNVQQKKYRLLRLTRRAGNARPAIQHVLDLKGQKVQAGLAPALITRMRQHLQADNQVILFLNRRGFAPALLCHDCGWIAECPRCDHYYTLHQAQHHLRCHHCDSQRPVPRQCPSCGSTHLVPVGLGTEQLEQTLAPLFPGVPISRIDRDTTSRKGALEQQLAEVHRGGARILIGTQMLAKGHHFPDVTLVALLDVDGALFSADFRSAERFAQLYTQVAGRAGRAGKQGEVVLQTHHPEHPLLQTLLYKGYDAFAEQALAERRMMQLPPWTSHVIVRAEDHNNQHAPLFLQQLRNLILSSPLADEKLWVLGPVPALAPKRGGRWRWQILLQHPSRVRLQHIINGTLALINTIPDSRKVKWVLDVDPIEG
Setting [1] is: label: 3' fluorescein on S8 (nascent lagging strand), three-way fork without gap: S5[1-25]:S6[26-50] parental, S5[26-50]:S7 leading, S6[1-25]:S8 lagging, blunt arms.
Setting [2] is: label: 3' fluorescein, single strand.

B1: fully-duplex fork DNA, 25 bp arms (structured_DNA)
DNA 1: GTCGGATCCTCTAGACAGCTCCATGATCACTGGCACTGGTAGAATTCGGC
DNA 2: AACGTCATAGACGATTACATTGCTACATGGAGCTGTCTAGAGGATCCGAC
DNA 3: GCCGAATTCTACCAGTGCCAGTGAT
DNA 4: TAGCAATGTAATCGTCTATGACGTT
Take B1: the Kd in the data set with PriA (D. radiodurans) (setting [1]) came to 108 ± 1.7 nM; with PriA (E. coli) (setting [1]) it was 52.1 ± 1 nM.
For AAGCACAATTACCCACGC (ssDNA) [18-base mixed-sequence ssDNA], the Kd came to 215 ± 17 nM with PriA (D. radiodurans) (setting [2]) and 129 ± 11.9 nM with PriA (E. coli) (setting [2]).
